The values below come from publication PMC11362169, “Interdomain-linkers control conformational transitions in the SLC23 elevator transporter UraA” (Nature Communications, 2024).

The target of one data set is uracil. The experiment in a line: scintillation proximity assay (homologous competition with 3H-uracil).
A further data set deals with T1, UraA (Escherichia coli, UniProt P0AGM7).
T1 construct: full-length ORF, expressed in E. coli MC1061 from pBXC3GH (tag removed with HRV-3C protease), decylmaltoside-solubilized; C-terminal biotinylated AVI-tag for SPA; WT and G112P monomeric, P330G dimeric, G320P both fractions
The experiment in a line: differential scanning fluorimetry (CPM dye). It counts as binding. The following applies: 20 mM Hepes pH 7.5, 150 mM NaCl, 0.2% DM. (Differential scanning fluorimetry follows unfolding on heating by fluorescence.)

Data set [1] has as its target T2, wild type UraA (E. coli uracil permease) (E. coli, UniProt P0AGM7).
T2 construct: uracil permease UraA, E. coli; open reading frame amplified from genomic DNA of E. coli MC1061; Membrane protein in 0.2% decylmaltoside; elutes as monomers and dimers; A few residues of the FX cloning sites and of the 3C site probably remain after cleavage (surmised); also called UraA(WT); source: E. coli MC1061 (pBXC3GH), purified (decylmaltoside-solubilised, Ni-NTA, eluted with HRV-3C protease, …)
The experiment in a line: differential scanning fluorimetry; UraA variants 0.1 mg/mL in 20 mM Hepes pH 7.5, 150 mM NaCl, 0.2% DM, without uracil, in absence and presence of Sy45; CPM dye, 25 to 90 °C at 2 °C/min. Particulars: both partners purified.

The Kd is the concentration at which binding is half-saturated. In turn, “wild type UraA (E. coli uracil permease) (from UniProt P0AGM7) P330G” registered a Kd in the data set with uracil (absence of Sy45) of 0.007 µM.
“wild type UraA (E. coli uracil permease) (from UniProt P0AGM7) G320P”: the Kd in the data set with uracil (absence of Sy45) came to 0.035 µM; with uracil (presence of Sy45 (panel titled UraA(G320P)-Sy45)), 0.144 µM.
For the molecule `O=c1cc[nH]c(=O)[nH]1` [uracil], the “Tm with 1 mM uracil (apo Tm 54.2 ± 0.2 °C)” value at UraA was determined as 64.1 ± 0.1 °C.

B1: sybody Sy45 (synthetic nanobody) (VHH)
VHH: QVQLVESGGGSVQAGGSLRLSCAASGNIAYIHYLGWFRQAPGKEREGVAALSTTLGNTYYADSVKGRFTVSLDNAKNTVYLQMNSLKPEDTALYYCAAAYFGYSSPLAHERYMYWGQGTQVTVSA
notes: sybody with a convex paratope, selected from a synthetic library against wild type UraA; also called synthetic single-domain antibody; conformational probe
Consider B1, for which the “thermostabilization (increase of melting temperature)” value in data set [1] is 16.7 °C.
